The source of these data is patent US9920082B2, “Water-soluble complexing agents and corresponding lanthanide complexes” (CISBIO BIOASSAYS, priority 2013, dated 2018).

Data set [1] in a line: Determination of Log P (octanol/water partition coefficient) of europium complexes. It counts as physicochemical. The conditions noted are these: water/octanol mixtures 2:1, 1:1, 1:2, about 2 μM, ±20%. The source says:
Log P is a measure of the differential solubility of chemical compounds in two solvents (octanol/water partition coefficient). Log P is equal to the logarithm of the ratio of the concentrations of the substance under investigation in octanol and in water. Log P=Log(Coct/Cwater). This value ascertains the hydrophilic or hydrophobic (lipophilic) character of a molecule. In fact, if Log P is positive and very high, this expresses the fact that the molecule considered is far more soluble in octanol than in water, which reflects its lipophilic character, and vice versa. Zero or negative Log P signifies that the molecule is of a hydrophilic character.
Three equimolar solutions of europium complex were prepared in methanol. The solvent was removed under reduced pressure and the solid that remained was dissolved and stirred for 24 h in a water/octanol mixture (2:1, 1:1, 1:2), (0.9 mL) giving a total concentration of about 2 μM. After equilibration, an emission spectrum of each phase was recorded in methanol (50 μL of solution in 1 mL of methanol). For each mixture, the value of log P was calculated using the following equation: […]

Data set [2] is described as follows: Photophysical properties of the complexes (λ max, quantum yield, life-time). It counts as physicochemical. The conditions noted are these: solvent MeOH. The source says: The photophysical characteristics of some complexes are described in Table 3. […] The values of the quantum yields (Φcm) must be considered to have a margin of error of ±15%. All these complexes have quantum yields above 10%, without adding potassium fluorides. The life-times (τ0) are at least 0.7 ms, which is favorable for FRET experiments. Finally, the complexes comprising solubilizer groups of the sulfonate or carboxylate type are highly soluble in aqueous biological buffers. The presence of charges makes complexes water-soluble that were not so initially.

The logP is the decadic logarithm of the partition coefficient of the neutral form, usually between octanol and water. `COc1ccc(C#Cc2cc(CN3CCN(Cc4cc(C#Cc5ccc(OC)cc5)cc(P(C)(=O)O)n4)CCN(Cc4cc(C#Cc5ccc(OCC(=O)NCC(=O)N[C@@H](CCCNC(=N)N)C(=O)N[C@@H](CCCNC(=N)N)C(=O)N[C@@H](CCCNC(=N)N)C(=O)N[C@@H](CCCNC(=N)N)C(=O)N[C@@H](CCCNC(=N)N)C(=O)N[C@@H](CCCNC(=N)N)C(=O)N[C@@H](CCCNC(=N)N)C(=O)O)cc5)cc(P(C)(=O)O)n4)CC3)nc(P(C)(=O)O)c2)cc1` [Compound 89]: in data set [1], the logP stood at 0.3. Further, in data set [2], the λ max is listed as 330 nm and the τ0 came out at 1.12 ms. Further, the Φem in data set [2] (margin of error ±15%) was 50%.
